Source: patent US20220273823A1, “THERANOSTIC CONJUGATES” (Ariel Scientific Innovations Ltd., priority 2019, published 2022)

How the values were obtained:
[1] = Drug (Aza) release from Aza-Flu conjugates in PB, CM and 1.25% LH by time-dependent fluorescence spectra
[2] = test system: SSTRs; assay: Competitive binding of 5-CLB and free octreotide to PANC-1 receptors (NIR fluorescence imaging); type: cell-based, human; settings: 5-CLB 10 μM, Oct x1, x3, x10 molar excess, NIR channel, 60 min after incubation
Experimental: The specificity of 5-CLB towards PANC-1 cell line was supported also by a competitive binding of 5-CLB and commercially available octreotide to the PANC-1 receptors. In a series of experiments, PANC-1 cell line was incubated for 10 min in PBS buffer contained 5% DMSO with a constant concentration of 5-CLB (10 μM) and variable concentration of octreotide (×1, ×3 and ×10 molar excess) and washed out. Then the fluorescence images were taken in the NIR channel in 60 minutes after the incubation.
PANC-1 were incubated for 10 minutes at 37° C. in PB with 5-CLB (10 μM) and increasing concentrations of Oct (xl, x3 and x10 molar excess) and both compounds were washed out. Fluorescence images were taken at 60 min after the incubation and fluorescence intensities remaining in the cells were measured. […] At the next step, the ratiometric fluorescence monitoring of CLB release from the 5-CLB conjugate delivered into the PANC-1, has been conducted. The cells were incubated with 5-CLB for 10 min to allow accumulation of the compound, and fluorescence images were taken over time in two channels. The NIR channel enabled measurements of the signal from IRD dye conjugated with CLB (5-CLB) while the Red channel detected the signal from the RD fluorophore formed upon the CLB release. […]

[3] = Spectral properties of RD, IRD-CLB and 5-CLB in PB and CM; type: physicochemical; settings: for ΦF / λmaxAb / λmaxFl: 25° C.
Experimental: The spectral properties of the dye RD and its conjugates IRD-CLB and 5-CLB were measured at the concentrations (c) of 0.6 μM in 10 mM phosphate buffer pH 7.5 (PB) and cell medium pH 7.5 (CM), both containing 20% of acetonitrile (ACN) to improve solubility of the compounds.
Table 2 presents the absorption (λmaxAb) and emission (λmaxFl) maxima, extinction coefficients (ε) and fluorescence quantum yields (ΦF) of the RD dye and IRD-CLB and 5-CLB conjugates measured at 25° C. in 10 mM phosphate buffer pH 7.5 (PB) and cell medium pH 7.5 (CM).
(§1) The biodegradable ester linker (BL) in IRD-CLB and 5-CLB can be hydrolyzed to release free CLB and, accordingly, IRD turns into RD, which is accompanied by a noticeable change in the spectral properties. The time-dependent emission spectra were recorded in PB and CM (see, FIGS. 9A-D) using the excitation wavelengths 720 nm and 532 nm. The first one enabled monitoring of the decrease in the concentration of IRD-CLB and 5-CLB, while the second one—the increase in the concentration of RD and OctA-RD. Only the NIR fluorescence of IRD-CLB and 5-CLB was detected, when excited at 720 nm; and only the red fluorescence of RD and OctA-RD was detected, when excited at 532 nm.
Absorption spectra were recorded on a Jasco V-730 UV-Vis spectrophotometer and the fluorescence spectra were measured on Edinburgh FS5 spectrofluorometer. The absorption and fluorescence spectra and the quantum yields (ΦF) were measured in a 1-cm quartz cell at ˜0.5 μM dye concentrations in PB 10 mmol buffer pH 7.4 at 25° C. and cell medium pH 7.4. Excitation wavelength was 720 nm and 532 nm. The recorded fluorescence spectra were corrected using the wavelength-dependent instrument sensitivity coefficients. Absorption and emission maxima were measured with accuracy of ±0.3 nm and ±0.5 nm, respectively, and rounded. For the determination of the quantum yields, the integrated relative intensities were measured versus ICG™ in methanol as the reference (ΦF=0.043) and Cy3™ in PBS (ΦF=0.043). The absorbance values measured for the samples and the reference at the excitation wavelength were 0.04-0.06 measured in a 1-cm cell. The absolute quantum yields were calculated according to Equation 1.

[4] = Cleavage rates for IRD-CLB and 5-CLB in PB and cell medium (time-dependent emission spectra); type: in vitro ADME; settings: pH 7.4, incubated at 37° C., read-out: drug release half-life τ1/2 (converted)
Experimental: as §1
Upon the hydrolytic cleavage, the NIR emission band (FNIR) related to IRD decreases and the red emission band (FRed) of RD increases (FIGS. 9A-D). Based on the time-dependent emission spectra, the drug cleavage profiles for IRD-CLB and 5-CLB were obtained (FIG. 9A) and the drug release rates were quantified by the half-lives (τ1/2).
A stock solution of IRD-CLB and 5-CLB in acetonitrile was added to PB 10 mmol buffer pH 7.4 at 25° C. and cell medium pH 7.4, which both contained 20% of acetonitrile. The absorbance of the resulted solutions at the maximum was 0.10±0.01, when measured in a 1-cm standard quartz cell. The solutions were incubated at 37° C. during 24 hours. In certain periods of time fluorescence spectrum was measured.

[5] = Ratiometric fluorescence monitoring of CLB release from 5-CLB in PANC-1; type: cell-based; settings: human, PANC-1 cells; PANC-1, 10 μM, 10 min incubation, NIR and Red channels; read-out: CLB cleavage half-life τ1/2
Experimental: The Fluorescent images were acquired by Photometrics CoolSNAP HQ2 camera mounted on an Olympus iX81 fluorescent microscope. For the Red channel a cube comprising a ET560/40x bandpass excitation filter, ET630/75m bandpass emission filter and T5851pxr dichroic filter was used. For the NIR channel a cube comprising a ET740/40x bandpass excitation filter, ET7801p long pass emission filter and T7701pxr dichroic filter was used. To monitor drug release, Panc-1 cell line was grown in six-well culture plates and then washed with PBS (pH 7.4) two times and then incubated 10 minutes with 5-CLB 10 μM solution in PBS (for better solubility PBS with 3% DMSO was used). After incubation, the samples washed thoroughly with PBS (pH 7.4) two times to remove excess conjugate and the fluorescence changes immediately measured by using fluorescent microscope. […]
The band intensities in a representative experiment were quantified by measurement of related fluorescence intensity for each image (via the “Measure” function) with Image J software.
PANC-1 were incubated for 10 minutes at 37° C. in PB with 5-CLB (10 μM) and increasing concentrations of Oct (xl, x3 and x10 molar excess) and both compounds were washed out. Fluorescence images were taken at 60 min after the incubation and fluorescence intensities remaining in the cells were measured. […]

[6] = test system: Panc-1; assay: XTT cytotoxicity assay, PANC-1; type: cell-based, human; settings: PANC-1, 10 min at 37° C., up to 25 μM, washed, XTT at 24 hours
Experimental: Application of the 5-CLB conjugate equipped with targeting peptide OctA was studied in the TDD monitoring using PANC-1 cancer cell line that overexpress SSTR-2 and SSTR-5 receptors. Efficient delivery of 5-CLB by the conjugated OctA to PANC-1 was verified by the XTT assay. Cytotoxicity of 5-CLB was compared to that of CLB or OctA added separately. The compounds were incubated with cells for 10 min at 37° C. at concentrations up to 25 μM, and subsequently were washed out, and growth inhibition compared to naïve/native cells was assessed in 24 hours.
The cytotoxicity of the peptide-drug conjugates was determined by measuring the mitochondrial enzyme activity, using a commercial XTT assay kit. Panc-1 cell line was cultured in RPMI medium supplemented with 10% heat-inactivated Fetal Bo-vine Serum (FBS), 2 mM glutamine, 1% penicillin and strep-tomycin and cultured at 37° C. in a humidified incubator with 6% CO2. Cells cultures were initiated in microplate wells at a concentration of 2-4×10^4 and the cells were allowed to adhere for 24 hours. […] Absorbance in the wells were measured with a TECAN Infinite M200 ELISA reader at both 480 and 680 nm—the latter being the background absorbance. […]

[7] = cell medium (CM), in CM with 20% acetonitrile

Row | Structure (SMILES) | half-life [1] | Fluorescence of 5-CLB accumulated in the cells in presence of free Oct [2] | ΦF ([3]; CM:ACN (4:1, v/v)) | λmaxAb ([3]; CM:ACN (4:1, v/v)) | λmaxFl ([3]; CM:ACN (4:1, v/v)) | emission when excited at 532 nm ([3]; PB and CM) | ΦF ([3]; PB:ACN (4:1, v/v)) | λmaxFl ([3]; PB:ACN (4:1, v/v)) | λmaxAb ([3]; PB:ACN (4:1, v/v), c=0.6 μM) | half-life ([4]; PB (10 mmol buffer), in PB with 20% acetonitrile) | half-life [4, 7] | half-life at 0.6 μM [4, 7] | half-life at 10 μM [5] | growth inhibition [6]
1 | COc1cc(C2c3[nH]c4ccccc4c3CC3COC(=O)N32)cc(OC)c1O/C=C/C(=O)Oc1ccc2c(c1)Oc1cc(OCC(=O)O)ccc1C21OC(=O)c2ccccc21 (stereo not drawn) [Aza-Flu-COOH, (E)-2-((3′-((3-(2,6-dimethoxy-4-(3-oxo-1,3,5,6,11,11a-hexahydrooxazolo[3′,4′:1,6]pyrido[3,4-b]indol-5-yl)phenoxy)acryloyl)oxy)-3-oxo-3H-spiro [isobenzofuran-1,9′-xanthen]-6′-yl)oxy) acetic acid] | ~1.8 h |  |  |  |  |  |  |  |  |  |  |  |  | 
2 | C[C@@H](O)[C@H](NC(=O)[C@@H]1CSSC[C@H](NC(=O)[C@@H](Cc2ccccc2)NC(=O)CCCNC(=O)CCCCCN2/C(=C/C=C3\CCCC(/C=C/C4=[N+](C)c5ccccc5C4(C)C)=C3OC(=O)CCCc3ccc(N(CCCl)CCCl)cc3)C(C)(C)c3ccccc32)C(=O)N[C@@H](Cc2ccccc2)C(=O)N[C@H](Cc2c[nH]c3ccccc23)C(=O)N[C@@H](CCCCN)C(=O)N[C@@H]([C@@H](C)O)C(=O)N1)C(N)=O [5-CLB] |  | decreased proportionally to the Oct concentration | 5.9% | 787 nm | 805 nm | no detectable emission | 1.5% | 796 nm | 783 nm | ~2.4 h | ~2 h | ~2 h | ~3.33 h | dramatically higher growth inhibition compared to CLB or OctA
